The record followed here is PMC10714992, “A monoclonal antibody targeting spore wall protein 1 inhibits the proliferation of Nosema bombycis in Bombyx mori” (Microbiology Spectrum, 2023).

The target of experiment [1] is T1, recombinant GST-SWP1 fusion protein (Nosema bombycis CVCC 102059, UniProt B3STN5).
T1 construct: spore wall protein 1 (SWP1) of Nosema bombycis, gene cloned by PCR into pGEX-4T-1 (BamH I / XhoI); also called rGST-SWP1; source: E. coli Rosetta, pGEX-4T-1, purified (Glutathione Sepharose)
Briefly: ELISA; indirect ELISA: plates coated with recombinant GST-SWP1 (0.3 ug/well) overnight at 4 C, recombinant 6xHis-tagged antibodies from baculovirus added for 1 h at room temperature, detected with anti-6xHis rabbit mAb; titer. The settings on record: both partners purified.

Experiment [2] concerns the target T2, Nosema bombycis spore wall protein 1, native (Nosema bombycis (strain CQ1 / CVCC …, UniProt B3STN5)).
T2 construct: spore wall protein 1 (SWP1) of Nosema bombycis, gene locus NBO_552g0005; also called SWP1; native SWP1
Briefly: Western blot; alkali-soluble germination (spore) proteins separated by SDS-PAGE on PVDF; culture supernatant or lysate of G9-Neo, scFvG9-Neo and NscFvG9-Neo BmE cells used as primary antibody. Conditions: partners not purified.

For experiment [3], the target named is T3, prokaryotic-expressed recombinant SWP1 (Nosema bombycis CVCC 102059, UniProt B3STN5).
T3 construct: spore wall protein 1 (SWP1) of Nosema bombycis, gene cloned by PCR from cDNA into pET30a (BamH I / HindIII); also called rSWP1; source: E. coli Rosetta, pET30a, purified (Ni-NTA)
The experiment is described as follows: Western blot; rSWP1 separated by SDS-PAGE; hemolymph or cell lysate of transgenic silkworms used as primary antibody. The settings on record: one partner purified.

T2 sequence (B3STN5 20-278): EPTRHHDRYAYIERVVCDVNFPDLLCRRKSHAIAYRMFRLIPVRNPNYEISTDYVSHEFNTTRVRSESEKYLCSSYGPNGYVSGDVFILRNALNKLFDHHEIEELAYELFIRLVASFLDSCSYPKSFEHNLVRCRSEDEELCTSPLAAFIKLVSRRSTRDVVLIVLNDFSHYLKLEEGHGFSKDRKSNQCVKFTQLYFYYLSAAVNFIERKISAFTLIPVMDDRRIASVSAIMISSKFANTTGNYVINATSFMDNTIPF
T3 sequence (B3STN5 20-278): as above
T1 sequence (B3STN5 20-278): as above

B1: recombinant scFvG9 from the baculovirus expression system (scFv, V domains shown)
VH: QVQLQQSGAELARPGASVKMSCKASGYTFTGFSIHWVKQRPGQGLEWIGYINPSSAYTKYNQNFKDKATLTADKSSSTAYMQLNSLTSDDSAVYYCAYRYDVGDYWGQGTSVTVSS
VL: DIVITQSPSSLAVSAGEKVTLSCKSSQSLFNSRTRKNYLAWYQQKPGQSPKLLIYWASTRESGVPDRFTGSGSGTDFTLTISSVQAEDLAVYYCKQSYYLWTFGGGAKLEIK
notes: variable domain of the heavy chain of m1; (G4S)3 linker; variable domain of the light chain of m1; The construct contains a signal peptide and a 6xHis tag; Detected in the ELISA by an anti-6xHis antibody; also called rscFvG9; pFast-rscFvG9; source: Bac-to-Bac baculovirus system, insect cells (Sf-900 III / Sf9), serum-free medium, purified (Ni-NTA); not shown: His6, C-terminal, kept
In the case of B1, the binding result in experiment [1] was “binds”.

B2: NscFvG9 expressed in NscFvG9-Neo transgenic BmE cells (scFv, V domains shown)
VH: B1 VH
VL: B1 VL
notes: variable domain of the heavy chain of m1; (G4S)3 linker; variable domain of the light chain of m1; scFvG9 with the signal peptide of VH removed, expressed intracellularly; also called scFv without the secretory signal peptide
As for B2, the binding result in experiment [2] is on record as “binds”.

B3: G9 intact antibody expressed in G9-Neo transgenic BmE cells (antibody, V domains shown)
VH: B1 VH
VL: B1 VL
notes: as the heavy chain of m1 (G9H); as the light chain of m1 (G9L); G9H was amplified with a signal peptide at the 5' end and a 6xHis tag at the 3' end; The light chain was made 'similarly', so it is not clear whether it also carries them; IE1 promoter; also called G9H + G9L
For B3, in experiment [2], the binding result is on record as “binds”.

B4: G9 intact antibody expressed in G9 transgenic silkworm (antibody, V domains shown)
VH: B1 VH
VL: B1 VL
notes: as the heavy chain of m1 (G9H); as the light chain of m1 (G9L); Same IE1-G9H-SV40 + IE1-G9L-SV40 cassettes as m2, in pBac[A3-EGFP]; G9H has a signal peptide at the 5' end; It is not clear whether the light chain also carries a signal peptide and His tag; source: transgenic silkworm (Bombyx mori), hemolymph and cell lysate
Turning to B4, the binding result in experiment [3] was “binds”.

B5: scFvG9 expressed in scFvG9-Neo transgenic BmE cells (scFv, V domains shown)
VH: B1 VH
VL: B1 VL
notes: variable domain of the heavy chain of m1; (G4S)3 linker; variable domain of the light chain of m1; The construct encodes an N-terminal secretion signal peptide from the CL40 anti-EBV/HHV-4 gHgL immunoglobulin heavy chain
For B5, the binding result in experiment [2] is reported as “binds”.

B6: recombinant G9 intact antibody (rG9H + rG9L) from the baculovirus expression system (antibody, V domains shown)
VH: B1 VH
VL: B1 VL
notes: as the heavy chain of m1 (rG9H); as the light chain of m1 (rG9L); rG9H contains a signal peptide at the 5' end and is driven by the polyhedrin promoter; rG9L is driven by the p10 promoter; Detected in the ELISA by an anti-6xHis antibody; also called pFast-rG9; source: Bac-to-Bac baculovirus system, insect cells (Sf-900 III / Sf9), serum-free medium, purified (Ni-NTA); not shown: His6, C-terminal, …
For the molecule B6, in experiment [1], the binding result is “binds”.

B7: scFvG9 expressed in scFvG9 transgenic silkworm (scFv, V domains shown)
VH: B1 VH
VL: B1 VL
notes: variable domain of the heavy chain of m1; (G4S)3 linker; variable domain of the light chain of m1; Same IE1-scFvG9-SV40 cassette as m3, which encodes a secretion signal peptide; also called scFv9; source: transgenic silkworm (Bombyx mori), hemolymph
Turning to B7, the binding result in experiment [3] is reported as “binds”.

B8: NscFvG9 expressed in NscFvG9 transgenic silkworm (scFv, V domains shown)
VH: B1 VH
VL: B1 VL
notes: variable domain of the heavy chain of m1; (G4S)3 linker; variable domain of the light chain of m1; Same IE1-NscFvG9-SV40 cassette as m4 (no signal peptide), in pBac[3xP3-EGFP]; also called NscFv9; source: transgenic silkworm (Bombyx mori), cell lysate
For B8, the binding result in experiment [3] is on record as “binds”.
